# From patent publication US7994133B2, “Isozyme-specific antagonists of protein kinase C” (The Board of Trustees of the Leland Stanford Junior …, priority 2003, dated 2011)
# Positions count from the first letter of the chain named.
# T1: GST-εRACK (Homo sapiens, UniProt P35606)
# T1 construct: made in house; host or cells: Hi5 insect cells (baculovirus made in Sf9)
# T1 sequence (P35606 2-906 limits assumed): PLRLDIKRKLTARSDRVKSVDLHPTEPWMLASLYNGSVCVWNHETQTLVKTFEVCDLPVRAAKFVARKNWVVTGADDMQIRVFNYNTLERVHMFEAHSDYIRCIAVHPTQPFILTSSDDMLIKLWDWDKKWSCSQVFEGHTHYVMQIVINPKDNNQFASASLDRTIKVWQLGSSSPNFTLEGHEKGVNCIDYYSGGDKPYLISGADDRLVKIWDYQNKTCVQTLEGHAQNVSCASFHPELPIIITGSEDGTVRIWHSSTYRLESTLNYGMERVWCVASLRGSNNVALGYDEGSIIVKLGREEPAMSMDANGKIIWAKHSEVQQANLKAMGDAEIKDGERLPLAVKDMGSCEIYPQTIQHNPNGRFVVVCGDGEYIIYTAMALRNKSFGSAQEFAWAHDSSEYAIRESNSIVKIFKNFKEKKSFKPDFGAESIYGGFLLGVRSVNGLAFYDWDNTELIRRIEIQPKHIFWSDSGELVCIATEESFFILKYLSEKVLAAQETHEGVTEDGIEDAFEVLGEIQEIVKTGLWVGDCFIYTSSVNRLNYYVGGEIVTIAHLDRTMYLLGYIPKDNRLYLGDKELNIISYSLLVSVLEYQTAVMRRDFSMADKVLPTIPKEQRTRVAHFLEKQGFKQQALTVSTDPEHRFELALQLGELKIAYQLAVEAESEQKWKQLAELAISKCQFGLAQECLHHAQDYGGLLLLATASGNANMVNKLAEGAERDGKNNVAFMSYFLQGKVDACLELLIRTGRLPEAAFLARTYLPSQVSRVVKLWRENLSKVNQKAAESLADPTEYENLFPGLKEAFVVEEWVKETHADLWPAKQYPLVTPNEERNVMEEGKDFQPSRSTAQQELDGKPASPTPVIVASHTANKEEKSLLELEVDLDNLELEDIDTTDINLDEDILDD
# B1: D(86)A: εPKC mutant wherein D at position 86 of ΨεRACK on εPKC is substituted with an A (protein)
# chain: MVVFNGLLKIKICEAVSLKPTAWSLRHAVGPRPATFLLDPYIALNVDDSRIGQTATKQKTNSPAWHDEFVTDVCNGRKIELAVFHAAPIGYDDFVANCTIQFEELLQNGSRHFEDWIDLEPEGRVYVIIDLSGSSGEAPKDNEERVFRERMRPRKRQGAVRRRVHQVNGHKFMATYLRQPTYCSHCRDFIWGVIGKQGYQCQVCTCVVHKRCHELIITKCAGLKKQETPDQVGSQRFSVNMPHKFGIHNYKVPTFCDHCGSLLWGLLRQGLQCKVCKMNVHRRCETNVAPNCGVDARGIAKVLADLGVTPDKITNSGQRRKKLIAGAESPQPASGGSPSEEDRSKSAPTSPCDQEIKELENNIRKALSFDNRGEEHRAASSPDGQLMSPGENGEVRQGQAKRLGLDEFNFIKVLGKGSFGKVMLAELKGKDEVYAVKVLKKDVILQDDDVDCTMTEKRILALARKHPYLTQLYCCFQTKDRLFFVMEYVNGGDLMFQIQRSRKFDEPRSRFYAAEVTSALMFLHQHGVIYRDLKLDNILLDAEGHCKLADFGMCKEGILNGVTTTTFCGTPDYIAPEILQELEYGPSVDWWALGVLMYEMMAGQPPFEADNEDDLFESILHDDVLYPVWLSKEAVSILKAFMTKNPHKRLGCVASQNGEDAIKQHPFFKEIDWVLLEQKKIKPPFKPRIKTKRDVNNFDQDFTREEPVLTLVDEAIVKQINQEEFKGFSYFGEDLMP
# B2: Wt: wild type εPKC, human construct (protein)
# chain: B1 chain with A86D
# B3: D(86)N: εPKC mutant wherein D at position 86 of ΨεRACK in εPKC is substituted with an N (protein)
# chain: B1 chain with A86N
# What was measured:
# GST-εRACK = biological target: T1, GST-εRACK; experiment: εRACK binding assay; conditions: for change of binding to εRACK in the presence of PL: with versus without phosphatidylserine and Sn-1,2 dioleoylglycerol
# Procedure: RACKs bind active PKC [Mochly-Rosen, D. & Gordon, A. S., FASEB J. 12:35-42 (1998); Mochly-Rosen, D. et al., Molec. Biol. Cell. (formerly Cell Regulation) 1:693-706 (1990).
# Insect cells expressing either εPKC or GST-εRACK were lysed as described in Example 4. GST-εRACK, […] was immobilized on Glutathion-Sepharose 4B beads (Amersham-Pharmacia), and washed thoroughly with wash buffer (20 mM Tris-HCl pH 7.5, 2 mM EDTA, 100 mM NaCl, 12 mM βME, and 0.1% TritonX-100). Immobilized GST-εRACK was then incubated with the soluble fraction of insect cell lysates containing 100 ng Wt, D(86)A, or D(86)N εPKC protein, in the presence or absence of phospholipid activators (PL) (phosphatidylserine 12 μg/reaction and, Sn-1,2 dioleoylglycerol 400 ng/reaction) for 1 hour at 4° C. Upon thorough washing with wash buffer, bound proteins were eluted in SDS-PAGE sample buffer and proteins separated on 8% SDS-PAGE gels. The amount of εPKC interacting with εRACK was determined by Western blot probing for εPKC with anti εPKC-V5 antibodies. Blots were then re-probed with ant-GST (Santa Cruz) to verify that the same amount of GST-εRACK was present in each binding assay. All other methods for this Example were performed as described, for example, in Example 4.
# CHO cells = experiment: Real-time confocal imaging of ATP-induced εPKC translocation; type: cell-based; conditions: 1 mM ATP; for time after stimulation at which translocation was apparent: GFP fusion
# Procedure: CHO cells were grown on glass coverslips, and serum-starved as described in Example 4. For each experiment, cells were transferred to a commercially available metal coverslip holder (Molecular Probes) in which the coverslip formed the bottom of a 1 ml bath. The media was then replaced with extracellular buffer (120 mM NaCl, 5 mM KCl, 1.5 mM CaCl2, 1.5 mM MgCl2, 20 mM HEPES and 30 mM glucose). Cells were stimulated by either PMA (100 nM), or with ATP (1 mM) in extracellular buffer. Fluorescence images of GFP-tagged constructs were obtained using the 488 nm excitation line of a laser scanning confocal microscope (Pascal, Zeiss) and emission was collected through a 505-550 nm band pass filter. Cells were imaged on the stage of an inverted microscope (Axiovert 100M) using a 40× Zeiss Plan-apo oil immersion objective with 1.2 numerical aperture (NA). For dual color imaging of CFP and YFP fusion proteins, a spinning disk Nipkow confocal microscope was used. Cells were viewed using an inverted Olympus IX70 microscope with a 40× oil immersion Olympus objective (1.35NA) and images were acquired with a CCD camera (Hamamatsu) and 2×2 pixel binning. CFP was excited with the 442 nm laser line of a helium-cadmium laser (Kimmon) whereas YFP was imaged with the 514 nm line of an argon ion laser (Melles-Griot). To selectively photobleach YFP labeled proteins in local regions of the cytoplasm for FRAP experiments, the 514 nm line of an Enterprise laser (Coherent) at maximal power (˜400 mW) was used. For these experiments, a 60× oil immersion objective was used (1.4NA). Under these conditions, and by placing an iris in the beam path, it was possible to bleach 80% of the YFP fluorescence in 500 ms in an area of the cytosol measuring approximately 35 um2. Real time confocal images were acquired every 10-15 seconds for 20 minutes for experiments utilizing PMA, and every 5 seconds for a total duration of 3 minutes in the case of cells stimulated with ATP. Reagents were added to the cell chamber after the fifth image in each time series. […] All images were acquired at room temperature. Images were exported as 12 or 16 bit files and changes in fluorescence intensity were measured using MetaMorph® data analysis software (Universal Imaging Corp.). To monitor the translocation of PKC, a small region of interest was selected in the cytosol of each cell and fluorescence intensity values graphed against time after subtraction of background values and normalized so that the initial fluorescence was 100%. Averages of 10-15 cells from three independent experiments were used. To determine statistical significance, a 1 tail type 2 T-test (Microsoft excel) was used.
# It was next determined whether differences in translocation rates of the different εPKCs were also observed when translocation was stimulated via receptor signaling rather than by PMA. ATP has been previously used to activate PKC in CHO cells by stimulating purinergic G protein-coupled receptors [Maasch, C. et al., FASEB J. 14:1653-1663 (2000)]. All methods for this Example were performed as described, for example, in Examples 4, 6 and 7.
Molecule,binding to εRACK relative to D(86)N or Wt (GST-εRACK; absence of PL activators),change of binding to εRACK in the presence of PL (GST-εRACK),time after stimulation at which translocation was apparent (CHO cells) [s],εRACK binding compared with D(86)A or Wt (GST-εRACK; presence of an equal concentration of PL),steady state level compared with D(86)A or Wt (CHO cells),translocation rate in comparison to wild type (CHO cells)
B1,at least two fold greater,not increased,10,,,
B2,,significantly increased,10,,,
B3,,significantly increased,40,less εRACK binding,significantly higher levels,slower translocation rate
